According to the supplement of paper PMC10567573:

B1: EPB41L3 (parent)
chain: SDYISEFRFAPNHTKELEDKVIEL

Variants of: B1
Assay: protein stability index of a GFP-peptide fusion (GPS, HEK-293T) (PSI 1-6); higher = more stable
Conditions: c terminus: a fixed tail appended
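Also: lentivirally expressed fusions sorted by FACS into six bins by GFP to DsRed ratio, PSI derived from sequencing read proportions per bin multiplied by bin number.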

Row | Variant | protein stability index
1 | SDYISEFRYAPNHTKELEDKVIEL [F9Y] | 2.25
2 | SDYISEFRMAPNHTKELEDKVIEL [F9M] | 4.03
3 | SDYISEFRNAPNHTKELEDKVIEL [F9N] | 4.59
4 | SDYISEFRWAPNHTKELEDKVIEL [F9W] | 3.54
5 | SDYISEFRVAPNHTKELEDKVIEL [F9V] | 4.44
6 | SDYISEFRKAPNHTKELEDKVIEL [F9K] | 4.29
7 | SDYISEFRGAPNHTKELEDKVIEL [F9G] | 4.6
8 | SDYISEFRCAPNHTKELEDKVIEL [F9C] | 3.93
9 | SDYISEFRDAPNHTKELEDKVIEL [F9D] | 4.97
10 | SDYISEFRAAPNHTKELEDKVIEL [F9A] | 4.79
11 | SDYISEFRPAPNHTKELEDKVIEL [F9P] | 4.76
12 | SDYISEFRLAPNHTKELEDKVIEL [F9L] | 4.09
13 | SDYISEFRSAPNHTKELEDKVIEL [F9S] | 4.79
14 | SDYISEFRQAPNHTKELEDKVIEL [F9Q] | 4.63
15 | SDYISEFRRAPNHTKELEDKVIEL [F9R] | 4.58
16 | SDYISEFRIAPNHTKELEDKVIEL [F9I] | 3.83
17 | SDYISEFRTAPNHTKELEDKVIEL [F9T] | 4.24
18 | SDYISEFRHAPNHTKELEDKVIEL [F9H] | 4.41
19 | ADYISEFRFAPNHTKELEDKVIEL [S1A] | 2.38
20 | IDYISEFRFAPNHTKELEDKVIEL [S1I] | 1.71
21 | TDYISEFRFAPNHTKELEDKVIEL [S1T] | 2.01
22 | MDYISEFRFAPNHTKELEDKVIEL [S1M] | 1.92
23 | HDYISEFRFAPNHTKELEDKVIEL [S1H] | 2.1
24 | NDYISEFRFAPNHTKELEDKVIEL [S1N] | 1.94

Row | Variant | protein stability index
25 | FDYISEFRFAPNHTKELEDKVIEL [S1F] | 1.96
26 | WDYISEFRFAPNHTKELEDKVIEL [S1W] | 1.76
27 | YDYISEFRFAPNHTKELEDKVIEL [S1Y] | 2.38
28 | CDYISEFRFAPNHTKELEDKVIEL [S1C] | 1.75
29 | RDYISEFRFAPNHTKELEDKVIEL [S1R] | 1.85
30 | KDYISEFRFAPNHTKELEDKVIEL [S1K] | 1.72
31 | GDYISEFRFAPNHTKELEDKVIEL [S1G] | 2.12
32 | DDYISEFRFAPNHTKELEDKVIEL [S1D] | 2.25
33 | LDYISEFRFAPNHTKELEDKVIEL [S1L] | 2.19
34 | EDYISEFRFAPNHTKELEDKVIEL [S1E] | 2.15
35 | VDYISEFRFAPNHTKELEDKVIEL [S1V] | 1.74
36 | QDYISEFRFAPNHTKELEDKVIEL [S1Q] | 2.45
37 | PDYISEFRFAPNHTKELEDKVIEL [S1P] | 2.71
38 | SDYISEFPFAPNHTKELEDKVIEL [R8P] | 4.4
39 | SDYISEFIFAPNHTKELEDKVIEL [R8I] | 3.24
40 | SDYISEFNFAPNHTKELEDKVIEL [R8N] | 3.94
41 | SDYISEFGFAPNHTKELEDKVIEL [R8G] | 4.38
42 | SDYISEFCFAPNHTKELEDKVIEL [R8C] | 4.05
43 | SDYISEFEFAPNHTKELEDKVIEL [R8E] | 4.47
44 | SDYISEFKFAPNHTKELEDKVIEL [R8K] | 4.26
45 | SDYISEFWFAPNHTKELEDKVIEL [R8W] | 3.17
46 | SDYISEFLFAPNHTKELEDKVIEL [R8L] | 3.24
47 | SDYISEFYFAPNHTKELEDKVIEL [R8Y] | 3.31
48 | SDYISEFMFAPNHTKELEDKVIEL [R8M] | 3.49

Row | Variant | protein stability index
49 | SDYISEFFFAPNHTKELEDKVIEL [R8F] | 2.04
50 | SDYISEFVFAPNHTKELEDKVIEL [R8V] | 3.39
51 | SDYISEFHFAPNHTKELEDKVIEL [R8H] | 4.48
52 | SDYISEFQFAPNHTKELEDKVIEL [R8Q] | 4.1
53 | SDYISEFTFAPNHTKELEDKVIEL [R8T] | 3.99
54 | SDYISEFSFAPNHTKELEDKVIEL [R8S] | 4.3
55 | SDYISEFDFAPNHTKELEDKVIEL [R8D] | 4.51
56 | SDYISEFAFAPNHTKELEDKVIEL [R8A] | 3.7
57 | SRYISEFRFAPNHTKELEDKVIEL [D2R] | 2.02
58 | SFYISEFRFAPNHTKELEDKVIEL [D2F] | 2.02
59 | SMYISEFRFAPNHTKELEDKVIEL [D2M] | 2.25
60 | SKYISEFRFAPNHTKELEDKVIEL [D2K] | 2.45
61 | SLYISEFRFAPNHTKELEDKVIEL [D2L] | 2.18
62 | SGYISEFRFAPNHTKELEDKVIEL [D2G] | 1.45
63 | SIYISEFRFAPNHTKELEDKVIEL [D2I] | 1.9
64 | SWYISEFRFAPNHTKELEDKVIEL [D2W] | 1.89
65 | SAYISEFRFAPNHTKELEDKVIEL [D2A] | 2.21
66 | SVYISEFRFAPNHTKELEDKVIEL [D2V] | 2.02
67 | SNYISEFRFAPNHTKELEDKVIEL [D2N] | 1.88
68 | SPYISEFRFAPNHTKELEDKVIEL [D2P] | 2.29
69 | SQYISEFRFAPNHTKELEDKVIEL [D2Q] | 1.62
70 | SYYISEFRFAPNHTKELEDKVIEL [D2Y] | 1.75
71 | SSYISEFRFAPNHTKELEDKVIEL [D2S] | 2.11
72 | SHYISEFRFAPNHTKELEDKVIEL [D2H] | 1.85

Row | Variant | protein stability index
73 | STYISEFRFAPNHTKELEDKVIEL [D2T] | 1.95
74 | SCYISEFRFAPNHTKELEDKVIEL [D2C] | 2.46
75 | SEYISEFRFAPNHTKELEDKVIEL [D2E] | 2.48
76 | SDIISEFRFAPNHTKELEDKVIEL [Y3I] | 1.86
77 | SDRISEFRFAPNHTKELEDKVIEL [Y3R] | 2.34
78 | SDEISEFRFAPNHTKELEDKVIEL [Y3E] | 4.43
79 | SDPISEFRFAPNHTKELEDKVIEL [Y3P] | 2.4
80 | SDWISEFRFAPNHTKELEDKVIEL [Y3W] | 2.39
81 | SDGISEFRFAPNHTKELEDKVIEL [Y3G] | 2.94
82 | SDNISEFRFAPNHTKELEDKVIEL [Y3N] | 3.18
83 | SDMISEFRFAPNHTKELEDKVIEL [Y3M] | 2.29
84 | SDCISEFRFAPNHTKELEDKVIEL [Y3C] | 2.38
85 | SDVISEFRFAPNHTKELEDKVIEL [Y3V] | 1.97
86 | SDKISEFRFAPNHTKELEDKVIEL [Y3K] | 2.69
87 | SDDISEFRFAPNHTKELEDKVIEL [Y3D] | 4.03
88 | SDAISEFRFAPNHTKELEDKVIEL [Y3A] | 2.76
89 | SDSISEFRFAPNHTKELEDKVIEL [Y3S] | 3.59
90 | SDQISEFRFAPNHTKELEDKVIEL [Y3Q] | 3.28
91 | SDLISEFRFAPNHTKELEDKVIEL [Y3L] | 2.08
92 | SDTISEFRFAPNHTKELEDKVIEL [Y3T] | 3.06
93 | SDHISEFRFAPNHTKELEDKVIEL [Y3H] | 2.91
94 | SDFISEFRFAPNHTKELEDKVIEL [Y3F] | 1.91
